For assay [1], the target named is human CD4 on cells (SKW3 cells; human PBMCs) (human) (UniProt P01730). The assay can be described thus: SKW3 FACS binning, OKT4a on SKW3 cells, anti-hu A647 secondary, without competing supernatant (background 5000).
Assay [2] shares this target. The assay can be described thus: SKW3 FACS binning, OKT4-A488 on SKW3 cells without competing supernatant (background 2163).
The target is the same in assay [3]. The assay is described as follows: SKW3 FACS binning, RPA-T4-PE-Dazzle 594 on SKW3 cells without competing supernatant (background 783).

The substance Human anti-human CD4 (OKT4a) (antibody) returned a Max Binding in assay [1] of 35000.
The substance “Mouse anti-human CD4 (OKT4), Alexa Fluor 488 conjugated (antibody)” displayed a Max Binding in assay [2] of 8200.
For “Mouse anti-human CD4 (RPA-T4), PE-Dazzle 594 conjugated (antibody)”, in assay [3], the Max Binding came to 15000.

The values are drawn from patent US20220112288A1.
